This is an account of results in patent US11535650 (RA PHARMACEUTICALS, dated 2022).

First the molecules themselves.
B1: R3143 (peptide)
peptide: CVERFCDGYWEYP
modifications: [mXylyl(1,6)]Ac-C-V-E-R-F-C-D-Tbg-Y-W-E-Y-P-NH2
B2: R3016 (peptide)
peptide: Ac-C[Tle]Y[Trp(7-aza)]EY[NMeS]HC-NH2
modifications: linker 1-9 via mXylyl
B3: R3150 (peptide)
peptide: Ac-CVARFCD[Tle]Y[Trp(7-aza)]EYP[Phg][Nva]-NH2
modifications: linker 1-6 via mXylyl″
B4: R3172 (peptide)
peptide: Ac-CVERFC[NMeD][Tle]Y[Trp(7-aza)]EYP[Chg][Nva]-NH2
modifications: linker 1-6 via mXylyl″
B5: R3155 (peptide)
peptide: Ac-CVERACD[Tle]Y[Trp(7-aza)]EYP[Phg][Nva]-NH2
modifications: linker 1-6 via mXylyl″
B6: R3017 (peptide)
peptide: Ac-[Nva]CYEN[Tle]YCEYP[Phg][Nva]-NH2
modifications: linker 2-8 via mXylyl
B7: R3028 (peptide)
peptide: Ac-[Tle]Y[Trp(7-aza)]EYP[Phg][Nva]-NH2
SMILES: CCC[C@H](NC(=O)[C@@H](NC(=O)[C@@H]1CCCN1C(=O)[C@H](Cc1ccc(O)cc1)NC(=O)[C@H](CCC(=O)O)NC(=O)[C@H](Cc1c[nH]c2ncccc12)NC(=O)[C@H](Cc1ccc(O)cc1)NC(=O)[C@@H](NC(C)=O)C(C)(C)C)c1ccccc1)C(N)=O
B8: R3034 (peptide)
peptide: Ac-[Nva]C[Phg]TAEY[NMeS]HC[Nva]-NH2
modifications: linker 2-10 via mXylyl
B9: R3166 (peptide)
peptide: Ac-CAERFCD[Tle]Y[Trp(7-aza)]EYP[Phg][Lys‑C8]-NH2
modifications: linker 1-6 via mXylyl″
B10: R3162 (peptide)
peptide: Ac-CAERFCD[Tle]Y[Trp(7-aza)]EYP[dPhg]K-NH2
modifications: linker 1-6 via mXylyl″
B11: R3156 (peptide)
peptide: Ac-CVERACD[Tle]Y[Trp(7-aza)]EYP[dPhg][Nva]-NH2
modifications: linker 1-6 via mXylyl″
B12: R3161 (peptide)
peptide: Ac-CAERFCD[Tle]Y[Trp(7-aza)]EYP[Phg]K-NH2
modifications: linker 1-6 via mXylyl″
B13: R3164 (peptide)
peptide: Ac-CAERFCD[Tle]Y[Trp(7-aza)]EYP[Phg][Lys‑C12]-NH2
modifications: linker 1-6 via mXylyl″
B14: R3020 (peptide)
peptide: MCSERYCEVRWEY-NH2
modifications: linker 2-7 via mXylyl
B15: R3001 (peptide)
peptide: Ac-[Nva]CYEN[Tle]Y[Trp(7-aza)]EY[Sar][Nva][NMeS]-NH2
SMILES: CCC[C@H](NC(C)=O)C(=O)N[C@@H](CS)C(=O)N[C@@H](Cc1ccc(O)cc1)C(=O)N[C@@H](CCC(=O)O)C(=O)N[C@@H](CC(N)=O)C(=O)N[C@H](C(=O)N[C@@H](Cc1ccc(O)cc1)C(=O)N[C@@H](Cc1c[nH]c2ncccc12)C(=O)N[C@@H](CCC(=O)O)C(=O)N[C@@H](Cc1ccc(O)cc1)C(=O)N(C)CC(=O)N[C@@H](CCC)C(=O)N(C)[C@@H](CO)C(N)=O)C(C)(C)C
B16: R3148 (peptide)
peptide: Ac-CAERFCD[Tle]YWEYP[Phg][Nva]-NH2
modifications: linker 1-6 via mXylyl″
B17: R3149 (peptide)
peptide: Ac-CAERFCD[Tle]YWEYP[dPhg][Nva]-NH2
modifications: linker 1-6 via mXylyl″
B18: R3022 (peptide)
peptide: Ac-[Nva]C[Phg]T[Trp(7-aza)]EY[NMeS]HC[Nva]P[Nva]-NH2
modifications: cysteine pairing not given here
B19: R3019 (peptide)
peptide: Ac-[Nva]CYEN[Tle]Y[Trp(7-aza)]EYP[Phg][Nva]C-NH2
modifications: linker 2-14 via mXylyl
B20: R3154 (peptide)
peptide: Ac-CVEAFCD[Tle]Y[Trp(7-aza)]EYP[dPhg][Nva]-NH2
modifications: linker 1-6 via mXylyl″
B21: R3142 (peptide)
peptide: Ac-CVERFCDVY[Trp(7-aza)]EYP-NH2
modifications: linker 1-6 via mXylyl″
B22: R3036 (peptide)
peptide: Ac-[Nva]C[Phg]T[Trp(7-aza)]EA[NMeS]HC[Nva]-NH2
modifications: linker 2-10 via mXylyl
B23: R3146 (peptide)
peptide: Ac-C[Tle]ERFCDVYWEF-NH2
modifications: linker 1-6 via mXylyl″
B24: R3015 (peptide)
peptide: Ac-C[Phg]T[Trp(7-aza)]EY[NMeS]HC-NH2
modifications: linker 1-9 via mXylyl
B25: R3033 (peptide)
peptide: Ac-[Nva]C[Phg]A[Trp(7-aza)]EY[NMeS]HC[Nva]-NH2
modifications: linker 2-10 via mXylyl
B26: R3168 (peptide)
peptide: Ac-CVERFC[Ala(1H-tetrazol-5-yl)][Tle]Y[Trp(7-aza)]EYP[Chg][Nva]-NH2
modifications: linker 1-6 via mXylyl(3)
B27: R3147 (peptide)
peptide: Ac-CVERFCDVYWEF[Pra]-NH2
modifications: linker 1-6 via mXylyl″
B28: R3032 (peptide)
peptide: Ac-[Nva]CAT[Trp(7-aza)]EY[NMeS]HC[Nva]-NH2
modifications: linker 2-10 via mXylyl
B29: R3037 (peptide)
peptide: Ac-[Nva]C[Phg]T[Trp(7-aza)]EY[NMeA]HC[Nva]-NH2
modifications: linker 2-10 via mXylyl
B30: R3141 (peptide)
peptide: Ac-CVERFCDVYWEFP-NH2
modifications: linker 1-6 via mXylyl″
B31: R3018 (peptide)
peptide: Ac-[Nva]CYEN[Tle]Y[Trp(7-aza)]ECP[Phg][Nva]-NH2
modifications: linker 2-10 via mXylyl
B32: R3157 (peptide)
peptide: Ac-CVERFCA[Tle]Y[Trp(7-aza)]EYP[Phg][Nva]-NH2
modifications: linker 1-6 via mXylyl″
B33: R3151 (peptide)
peptide: Ac-CVARFCD[Tle]Y[Trp(7-aza)]EYP[dPhg][Nva]-NH2
modifications: linker 1-6 via mXylyl″
B34: R3158 (peptide)
peptide: Ac-CVERFCA[Tle]Y[Trp(7-aza)]EYP[dPhg][Nva]-NH2
modifications: linker 1-6 via mXylyl″
B35: R3038 (peptide)
peptide: Ac-[Nva]C[Phg]T[Trp(7-aza)]EY[NMeS]AC[Nva]-NH2
modifications: linker 2-10 via mXylyl
B36: R3013 (peptide)
peptide: Ac-[Nva]C[Phg]T[Trp(7-aza)]EY[NMeS]HC-NH2
modifications: linker 2-10 via mXylyl
B37: R3031 (peptide)
peptide: Ac-AC[Phg]T[Trp(7-aza)]EY[NMeS]HC[Nva]-NH2
modifications: linker 2-10 via mXylyl
B38: R3035 (peptide)
peptide: Ac-[Nva]C[Phg]T[Trp(7-aza)]AY[NMeS]HC[Nva]-NH2
modifications: linker 2-10 via mXylyl
B39: R3153 (peptide)
peptide: Ac-CVEAFCD[Tle]Y[Trp(7-aza)]EYP[Phg][Nva]-NH2
modifications: linker 1-6 via mXylyl″

Starred links: 1 amine or outer side, 2 acyl side, 3 side chain; linkers in the order of their positions; H or OH if unused. Positions of bridges follow the written chain, without caps; N, C: chain ends. Non-standard residues stand in square brackets, D forms with d. Primed or numbered codes have the meaning given here. No end group written: not given here. Lys‑C8 = N-ε-caprylic lysine, CCCCCCCC(=O)NCCCC[C@H](N[*:1])C(=O)[*:2]; mXylyl(3) = bridging moiety between the two residues given in brackets; mXylyl″ = bridging moiety between the two marked residues; mXylyl = bridging moiety between residues (mXylyl(i,j)); Ala(1H-tetrazol-5-yl) = N[C@@H](Cc1nnn[nH]1)C(=O)O; Trp(7-aza) = N[C@@H](Cc1c[nH]c2ncccc12)C(=O)O; NMeD = CN[C@@H](CC(=O)O)C(=O)O; dPhg = N[C@@H](C(=O)O)c1ccccc1; Chg = N[C@H](C(=O)O)C1CCCCC1; Phg = N[C@H](C(=O)O)c1ccccc1; Tle = CC(C)(C)[C@H](N)C(=O)O; Lys‑C12 = N-ε-lauryl lysine; NMeS = CN[C@@H](CO)C(=O)O; NMeA = CN[C@@H](C)C(=O)O; Pra = C#CC[C@H](N)C(=O)O; Nva = CCC[C@H](N)C(=O)O; Sar = CNCC(=O)O

In the experiment the target is human C5 protein (human, UniProt P01031 19-673; P01031 678-1676). As to the kind of experiment: cell-based or functional assay.
For B1, the “Avg. IC50, human hemolysis assay (complete human sera)” value (“Avg. IC50, human hemolysis assay” for short) stood at 18.6 nM.
For B2, the “Avg. IC50, human hemolysis assay” value is more than 13000 nM.
As to B3, the “Avg. IC50, human hemolysis assay” value is 32 nM.
As to B4, the “Avg. IC50, human hemolysis assay” value stood at 12 nM.
Take B5: the “Avg. IC50, human hemolysis assay” value was found to be 1530 nM.
For the molecule B6, the “Avg. IC50, human hemolysis assay” value was more than 100000 nM.
Turning to B7, the “Avg. IC50, human hemolysis assay” value was more than 10000 nM.
As to B8, the “Avg. IC50, human hemolysis assay” value was more than 50000 nM.
Consider B9, for which the “Avg. IC50, human hemolysis assay” value was 17.5 nM.
For B10, the “Avg. IC50, human hemolysis assay” value turned out to be 16.5 nM.
Then B11, with more than 10000 nM; and B12, with 7 nM; and B13, with 36 nM.
As for B14, the “Avg. IC50, human hemolysis assay” value was determined as 24.6 nM.
Consider B15, for which the “Avg. IC50, human hemolysis assay” value is 67.2 nM.
Turning to B16, the “Avg. IC50, human hemolysis assay” value amounted to 8.5 nM.
For B17, the “Avg. IC50, human hemolysis assay” value was 13.6 nM.
As for B18, the “Avg. IC50, human hemolysis assay” value was more than 10200 nM.
B19: the “Avg. IC50, human hemolysis assay” value was 1320 nM.
With B20, the “Avg. IC50, human hemolysis assay” value turned out to be 592 nM.
Then B21, with 44.6 nM; and B22, with more than 50000 nM; and B23, with 107 nM.
Then B24, with more than 3960 nM; and B25, with 131 nM.
B26: the “Avg. IC50, human hemolysis assay” value came out at 7.5 nM.
With B27, the “Avg. IC50, human hemolysis assay” value came to 138 nM.
For the molecule B28, the “Avg. IC50, human hemolysis assay” value is more than 10000 nM.
Consider B29, for which the “Avg. IC50, human hemolysis assay” value was found to be 276 nM.
Turning to B30, the “Avg. IC50, human hemolysis assay” value came out at 24.5 nM.
As to B31, the “Avg. IC50, human hemolysis assay” value was more than 5730 nM.
To B32 belongs 84.5 nM; to B33, 165 nM; to B34, 327 nM.
Turning to B35, the “Avg. IC50, human hemolysis assay” value is 140 nM.
In the case of B36, the “Avg. IC50, human hemolysis assay” value is 344 nM.
Regarding B37, the “Avg. IC50, human hemolysis assay” value stood at 1090 nM.
In the case of B38, the “Avg. IC50, human hemolysis assay” value was more than 50000 nM.
Turning to B39, the “Avg. IC50, human hemolysis assay” value came out at 175 nM.
